Values of other authors in patent publication US20230285262A1, “Skin Compositions and Uses” (Stemetrix, Inc., priority 2013, published 2023).

Key:
[1] = system: erythropoiesis-stimulating response; details: per mg of protein
[2] = commercial preparation judged 98% pure

For “EGF: human epidermal growth factor, commercial preparation judged 98% pure by PAGE and HPLC”, the ED50 (balb/c 3T3 cells; [2]) is given as no more than 0.1 ng/mL and the specific activity (balb/c 3T3 cells; corresponding to ED50) is given as ≥ 1×10^7 units/mg.
For “Human urinary EPO: isolated human urinary EPO, international reference standard for EPO assays”, the specific activity [1] is given as “about 70,000 U/mg”.
For “IGF-1: insulin-like growth factor-1, commercial preparation judged 98% pure by PAGE and HPLC”, the ED50 (FDC-P1 cells; [2]) is given as 2.0 ng/mL and the specific activity (FDC-P1 cells; corresponding to ED50) is given as ≥ 5×10^5 units/mg.
For “TGFβ3: human transforming growth factor beta-3, commercial preparation judged 98% pure by PAGE and HPLC”, the “expected ED50” value (mouse HT-2 cells; [2]) is listed as 0.05 ng/mL and the specific activity (mouse HT-2 cells; corresponding to ED50) is listed as ≥ 2×10^7 units/mg.
